Results reported in paper PMC4720525.

Target: YY1 (Mus musculus, UniProt Q00899 1-414)
Assay: EMSA

Sequence of YY1 (Q00899 whole entry): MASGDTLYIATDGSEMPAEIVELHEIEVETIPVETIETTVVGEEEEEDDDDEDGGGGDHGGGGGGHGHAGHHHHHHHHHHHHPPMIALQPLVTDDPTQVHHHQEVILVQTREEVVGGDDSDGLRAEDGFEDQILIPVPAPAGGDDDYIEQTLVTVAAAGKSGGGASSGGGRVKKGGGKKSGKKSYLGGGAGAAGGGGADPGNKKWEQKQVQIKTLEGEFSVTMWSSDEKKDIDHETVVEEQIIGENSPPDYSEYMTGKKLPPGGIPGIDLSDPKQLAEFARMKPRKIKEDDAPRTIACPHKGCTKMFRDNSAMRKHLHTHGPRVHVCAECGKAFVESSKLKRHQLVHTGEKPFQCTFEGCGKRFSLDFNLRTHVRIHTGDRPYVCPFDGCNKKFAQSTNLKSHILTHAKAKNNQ

B1: Arid1a promoter 30-bp DNA (dsDNA)
DNA 1: CTCTTCTCTCTTAAAATGGCTGCCTGTCTG
DNA 2: CAGACAGGCAGCCATTTTAAGAGAGAAGAG
- binding result: binds
